From the nanobody polyreactivity screen of Harvey et al. (2022)

Assay: yeast display, Sf9 membrane polyspecificity reagent, FACS + sequencing; frameworks hold sequencing errors
How it was run: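 After 36–48 hours of galactose induction, yeast (Saccharomyces cerevisiae BJ5465) displaying a synthetic nanobody library were stained at 4 °C for 1 hour with 10% biotinylated, detergent-solubilized Sf9 membrane reagent. Streptavidin microbeads enriched the stained cells before FACS sorting into low and high (top ~1%) gates on anti-HA and streptavidin fluorescence. Each clone's polyreactivity label reflects its gate of origin.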

| Sequence | polyreactivity (PSR sort gate) |
| --- | --- |
| QVQLVVSGGGLVQAGGSLRLSCAASGSIFTRYAMGWYRQAPGKERELVAAISSGGSTYYADSVKGRFTISRDNAKNTVYLQMNSLKPEDTAVYYCAKDSGSYRVGIYEPFPYGYWGQGTQVTVSS | low polyreactivity |
| QGQLEESGGGLFQAGGSLRLSCAASGRIFLYNGMGWYRQAPGKERELVAGITTGGNTNYADSVKGRFTISRDNAKNTVYLQMNSLKPEDTAVYYCAAEVIVYGWSPDYDYWGQGTQVTVSS | low polyreactivity |
| QVKLVETGGGLVQAGGSLRLSCAASGRTFTPYTMGRYRQAPGKEREFVAAITFRGGSTYYADSVKGRFTISRDIAKNTVYLQMNSLKPEDTEVYFCNARGHGGWGTSMYYWGHGTQVTVSS | high polyreactivity |
| QVQLVESGGGLVQAGGSLRLRCAASGITFPNYAMGWYRQAPGKERELVAAISSGGSTTYADSVKGRFTISRDNAKNTVYLQMNSLKPEDTAVYYCNADISAHYVIGVPTGYYWGQGTQVTVSS | low polyreactivity |
| QVQLVESGGGLVQAGGSLRLSCAASGSTFKRYVMGWYRQAPGKERELVAAISSRGGSTYYADSVKGRFTISRDNAKNTVYLQMNSLKPEDTAVYYCASANVRAEDYWGQGTQVTVSS | high polyreactivity |
| QVQLVESGGGLVQAGGSLRLSCAASGLIFRRYAMGWYRTAPGKERELVAAISSSGSTYYADSVKGRFTISRDNAKNTVYLQMNSLKPEDTAVYYCNKVTGRNADRYGYWGQGTQVTVSS | high polyreactivity |
| QVQLVESGGGLDQAGGSLRLSCAASGSIFYAYAMGWYRQAPGKEREFVAVISRGGITNYADSVKGRFTISRDNAKNTVYLELNSLKPEDTAVYYCAAGTSAWGYLRRYGYWGQGSQVTVSS | low polyreactivity |
| QVQLVESGGGLVQAGGSLRLSCASSGYIFSLSGMGWYRQAPGKERELVAAITGSGGGTYADSVKGRFTISRDNAKNTVYLQMISLKPEDTAVYYCAAGGYRRRFWPIYDYWGQGTQVSVSS | low polyreactivity |
| QVQLVESGGGIVQAGGSLRLSCAASGSTFWFNDMGWYRAAPGKEREFVAAISSSGGSTYYADSVKGRFTISRDNAKNTVYVQMNSLKPEDTAVYYWAVEVVRDYRYADWGQGTQVTVSS | low polyreactivity |
| QVQLVESGGGLVQAGGSLRLSCAASGNTFEYYVMGWYRQAPGKERELVAAITWSTGSTYYADSVKGRFTISRDNAKNTVYLQMNSLKPEDTAVYYCAALYYFIFGRPTRFDYWGQGTQVTVSS | low polyreactivity |
| QVQLVESGGGLVQAGGSLRLSCAASGRIFVKYAMGWYRQAPGKERELVAAIRSGGSTYYADSVKGRFTISRDNAKNTVYLQMNSLKPEDTAVYDCAADRNKHHYYTEPYDYWGQGTQVTVSS | low polyreactivity |
| QVQLVESGGGLVPAGGSLRLSCAASGRIFGWYAMGWYRQAPGKEREFVAAITVTGGSTYYADSVKGRFTISRDNAKNTVYLQMNSLKPEDTAVYYCAADRWYTRTGFDYWGQGTQVTVSS | low polyreactivity |
| QVQLVESGVGLFQAGGSLRLTCAASGSTFYLNDMGWYRQAPAKERELVAAIDWSGGSTYYADSVKGRFTNSRDNAKYYGYLQMNSLTPEDTAVYYCAARLFYEWRRLDYFIAWDYWGHGTQVTVSS | low polyreactivity |
| QVQLVESGGGLVQAGGSLRLSCAASGRTFYRYAMGWYRQAPGKERELVAAMSRSGTTYYADSVKGRFTISRDNAQNTVYFQMNSLKPEDTALYYCAAKPAARQRGGDYWGQGTQVTVSS | high polyreactivity |
| QVQLVESGGGIVQAGGSLRLSCAASGRTFRSNVMGWYRQAPGKERELVAAISWRGGNTHYADSVKGRFTISRDNAKNTVYLQMNSLKREDTAVFYCAARVTSRRDPDQIHGYWGQGTQVTVSS | high polyreactivity |
| QVQLVESGGGLVQAGGSLRLSCAASGSTSSNNAMGWYRQAPGKERELVADISTNGDSTSYADSVKGRFTISRDNAKNTVYLQMNSLKPEDTAVYYCNKDFVYPDDDGLFDYWGQGTQVTVSS | low polyreactivity |
| QVKLVESGGGLVKAGASLRLSCAASGSTLQHYAMGWYRQAPGKERELVAAINRSGDRTYYADSVKGRFTISRDNAKTTVYLQMNSLKPEDTPVDYCAAYDDYRAPVRYEYWGQGTQVTVSS | high polyreactivity |
| QVQLVESGGGLVQAGGSLRLSCAASGIIFGVNAMGWYRQAPGKERELVASITSGGSTNYADSVKGRFTISRDNAKNTVYLQMNSLKPEDTAVYYCNARWWAPGRPGDEINRILDYWGQGTQVTVSS | low polyreactivity |
| QVQLVESGGGLVQAGGSLRLSCAASGSTIVRYAMGWYRQAPGKERELVAAISSRGGSTYYADSVKGRFTNSRDNAKNTVYLQMNSLKAEDTGVYYCAAAQRCTNAYRVGSWGLGTQVTVSS | high polyreactivity |
| QVQLVESGVGLVKAGVSLRLSSDASARIFPHYAMGWYRQAPGKERELFAPINVDGGRTYYPDSVKGRFTISRDNAKNTVYLQLNILKPEDTAVYYCAAKPFLYHDQDYGYAVEFNYWGQGTQVTVSS | low polyreactivity |
| QVQIVESGGGLVQAGGSLRLSCAASGFTFVYYAMGWYRQAPGKERELVAAISKRGGSTYYADSVKGRFTISRDNAKNTVYLQMNSLKPEDTAVYYCNAGYGRWQRHDYWGQGTLVTVSS | high polyreactivity |
| QVQLVESGGCLVQAGGSLRLSCAASGSIFYYYAMGWYRQAPGKERELVADISISGGSTYYADSVKGRFTISRDNAKNTVYLQMNSLKPEDTAVYYCAATDYLWEPTVSNWGYTFDSWGQGTQVTVSS | low polyreactivity |

| Sequence | polyreactivity (PSR sort gate) |
| --- | --- |
| QVQLVESAAGLVQAGVSLRLSCAASGFTLFYYAMGWYRQEPGKERELVAGISRRGGSTYYADSVKGRFTISRDNEKNTVYLQMNSLKPEDTAVYYCAAGLCGYKSDTRGDYWGQGTQVTVSS | low polyreactivity |
| QVQLVESGGGLVQAGGSLRLSCAASGSTFSPYAMGWYRQAPGKEMDFVAAITSSGGSTYYADSVKGRFTISRDNAKNTVYLQMNSLKPEDTALYYFAAEGYYTSTYDLFDYYYWGQGTQVTVSS | low polyreactivity |
| QVQLVESGGGLVQAGGSLRLSCAASGSTSVTNAMGWYRQAPGKEREFVATINYSGTSTYYADSVKGRFTISRDNAKNTVYLLMNSLKPEDTAVYYCNKTFVRGVHGVYLPITSYDYWAQGTQVTVSS | low polyreactivity |
| QVQLVESGGGLVQAGGSLRLSCAASGFTFGKYTMGWYRQAPGKERELVAAISRSGGSTYYADSVKGRFTISRDIAKNTVYFQMNSLKPEDTAVYYCAVDYTYDMDYWGQGTHVTVSS | high polyreactivity |
| QVQLVESGGGLVQAGGSLRLSCAASGSTFWKYAMGWYRQAPGKEREFVAAITRSGGNTYYADSVKGRFTISRDNAKNTVYLQMNSLKPEDTALYYCAIVYKLITSYRGFGYWGQGTQVTVSS | high polyreactivity |
| QVHLVESGGGLVQAGGSLRLSCAASGIIFSDYALGWYRQAPGKERELVAAITSSGCSTYYADSVKGRFTISRDNAKNTVYLQMNSLKPEDTAVYYCNARYRRKSWRPFDYWGQGTQVTVSS | high polyreactivity |
| QVQLVESGGGLVQAGGSLRLSCAASGSIFNVNAMGWYRQAPGKERELVAAISSGGNTNYADSVKGRFTFSRDNAKNTVYLQMNRLKPEDTAVYYCATGGYYSAIVYGGYDYWGQGTQVTVSS | low polyreactivity |
| QVQLVESGGGLVQAGGSLRLSCAASGSTFAVYAMGWYRQAPGKVRELVAAMRYSGGSTYADSVKGRFTISRDNAKNTVYLQMNSLKPEDTAVYYCAAYVYSLGGEYGYWGQGTHVTVSS | high polyreactivity |
| QEQLQESGGGQVQAGGSLLLSCAASGNIIRYYYMGWYRQAPGKERELVAAITYGTSTNYADSVKGRFTISRDNAKNTVYLQMNSLKPEDTAVYYCAVVVNYGDPLDNWGQGTQVTVSS | high polyreactivity |
| QVQLVESGGGLVQAGGSLRLSCAASGSIFGVNAMGWYRQAPGKERELVASITGGDSTNYADSVKGRFTISRDNAKNTVYLQMNSLKPEDTAVYYCAKDHYYRYEEGDYWGQGTQVTVSS | low polyreactivity |
| QVQLVESGGGLVQAGGSLRLSCAASGSTFFDYAMGWYRQAPGKERELVAVISDGGTTTYADSVKGRFTISRDNAKNTVYLQMNSLKPVDTAVYYCAAENQDGLLVILGGYGYWGQGTQVTVSS | low polyreactivity |
| QVQLVESGGGLVQAGGSLRLSCAASGFTFYQNAMGWYRQAPGKVRELVAAIDRRGGRTYNADSVKGRFTISRDNAKKTVYLQMNSLKPEDTAVYYCNKEKYYTGYDYWGQGTQVTVSS | high polyreactivity |
| QVQLVESGGGLVQAGGSLRISCAASGRTFLVYTMGWYRQAPGKERELVAAISWSDGSTYYADSVKGRFTISRDNAKNTVYLQMNSLKPEDTAVYYCAARRTGYLYRYGYWGQGTQVTVSS | low polyreactivity |
| QVQLVESGGGLVQAGGSLRLSCAASGRIFPTYAMGWYRQAPGKERELVAGITSGGRTNYADSVKGRFTISRDNAKNTVYLQMNSLKQEDTAVYYCDKRVWPRDQYGKRNPRMDYWGQGTQVTVSS | high polyreactivity |
| QVQLVESGGGLVQAGGSLRLSCAASGSIFTLYDMGWYRQAPGKERELVAAITSGGSTDYADTVKGRFTISRDNAKNTVYLQMNSLKPEDTAVYYCNAESFTYWYRGASREYDYWGQGTQVTVSS | low polyreactivity |
| QVQLVESGGGLVQAGGSLRLSCAASGTIFQENAMGWYRQAPGKERELVAAITGSGDSTYYADSVKGRFTISRDNAKNTVYLQMNSLKPEDTAVYYCAASWHTPTVYDEYYYWGQGTQVTVSS | low polyreactivity |
| QVQLEESGGGLVQAGGSLRLSCAASGIIFHEYALGWYRQAPGKERELDASISWNDGSTYADSVKGRFTISRDNAKNTVYLQMNSQKPEDTAVYYCAADYPYYPFSSIYDYWGQGTQVTVSS | low polyreactivity |
| QVQLVESGGGLVQAGGSLRLSCAASGGIFWYYTMGWYRQAPGKERELVATISSGGRTYYADSVKGRFTISRDNAKNTVYLQMNSLKPEDTAVYYCAAVGWYNDYYWGQGTQVTVSS | high polyreactivity |
| QVQLVESGGGLVQAGGSLRLSCAASGYIFDVNAMGWSRPAPGKESELVASISRSGASTYYADSVKGRFTISRDNAKNTVYLQMNSLQPEDTAVYYCNAVSRYCEYDSWGQGTQVTVSS | high polyreactivity |
| QVQLVESGGGLVQAGGSLRLSCAASGRTFRSNAMGWYRQAPGKEREFVAAISSGGSTKYADSVKGRFTISRDNAKNTVYLQMNSLKPEDTAVYYCAAVSHSRYWGEGTQVTVSS | high polyreactivity |
| QVQLVESGGGLVQAGGSLRLSCAASGRIFAFYAMGWYRQAPGKERELVAAITWSGGSTYYADSVKGRFTISRDNAKNTVYLQMNSLKPEDTAVYYCAARYRHYFVRGGYWGQGTQVTVSS | high polyreactivity |
